Holding throughout (assay): native gel or EMSA; blue-native PAGE of the trimer-size SEC fractions (Superdex 200 Increase, TBS) after antibody affinity purification
Assay [1] concerns the target 327c SOSIP.664 trimer (HIV-1 isolate 327c (subtype C)).
The target in assay [2] is B41 SOSIP.664 trimer (HIV-1 isolate B41 (subtype B)).
Assay [3] concerns the target CRF02_AG_250 SOSIP.664 trimer (HIV-1 isolate CRF02_AG_250 (subtype AG)).
Assay [4] deals with SIV trimer SIVcpzMT145 SOSIP.664 (simian immunodeficiency virus SIVcpzMT145).

As to 327c SOSIP.664 trimer (complex), the stoichiometry N in assay [1] worked out at 3. For the substance B41 SOSIP.664 trimer (complex), the stoichiometry N in assay [2] was determined as 3.

In assay [3], CRF02_AG_250 SOSIP.664 trimer (complex) displayed a stoichiometry N of 3.

For the substance “SIV trimer SIVcpzMT145 SOSIP.664 (complex)”, the stoichiometry N in assay [4] was 3.

The record behind these values is article PMC5379070.
